Legend:
Assay type in all cases: cell-based, mouse
cDC1 = cDC1 migration, Boyden chamber assay; settings: supernatants of γδ T cells pretreated with IL-38, 2 hours
Method: Boyden chamber assays were performed using a 96 well-plate with 4.26 mm transwell inserts with 5.0 µm pore polycarbonate membrane (Corning). Briefly, 1.4×10^4 DC-enriched murine splenocytes (EasySep Mouse Pan-DC Enrichment Kit II, STEMCELL Technologies) were suspended in serum-free RPMI 1640 medium and added to transwell inserts. Supernatants collected after 24 hours of γδ T cells stimulation (described above) were pre-incubated with either 15 µg/mL IgG isotype control (R&D Systems) or 15 µg/mL anti-Xcl1 (R&D Systems) and added to the bottom compartment. Cells were harvested 2 hours later and migrated and non-migrated cells were analyzed by FACS. The percentage of migrated cDC1 was determined by the ratio of migrated/non-migrated cells.

splenic γδ T cells = test: γδ T cell / CD8+ T cell culture with recombinant IL-38; settings: 100 ng/mL daily, day 5, cytometric bead array
Method: γδ T cells and CD8+ T cells were isolated from murine spleens by fluorescence-activated cell sorting (FACS) and co-cultured at a ratio of 1:10. The cells were cultured in T-cell medium Roswell Park Memorial Institute (RPMI) 1640 with 5 mM glutamine, 100 U/mL penicillin, 100 µg/mL streptomycin, 10% heat-inactivated fetal calf serum (FCS), 1% non-essential and essential amino acids, 1% sodium pyruvate and 1% 4-(2-hydroxyethyl)-1-piperazineethanesulfonic acid (HEPES) followed by activation with mouse T-cell activator CD3/CD28 Dynabeads (Thermo Fisher Scientific), 10 ng/mL of recombinant murine (rm) IL-23 and rm IL-1β (both from Bio-Techne). Cells were supplemented with 10 ng/mL rm IL-2 (PrepoTech) at days 0, 2 and 5 and daily with 100 ng/mL rm IL-38 (AdipoGen) and 50 μM β-mercaptoethanol. Cells were cultured for up to 5 days. At the endpoint, supernatants were collected for cytokine determination and cell proliferation was analyzed by flow cytometry.
To measure the cytokines in PyMT tumors and cell culture supernatants, Cytometric Bead Array Flex Sets (BD Biosciences) were used for murine IL-17A and IFN-γ. The samples were acquired via FACS and analyzed with FlowJo Software V.10 (Tree Star).

γδ T cells = test: Xcl1 production by activated γδ T cells (ELISA); settings: 100 ng/mL, 24 hours
Method: γδ T cells isolated from murine spleen were cultured in T-cell medium, activated with mouse T-cell activator CD3/CD28 Dynabeads (Thermo Fisher Scientific), except for the negative control, and supplemented with 10 ng/mL rm IL-2 (PrepoTech), 100 ng/mL rm IL-38 (AdipoGen) and […] β-mercaptoethanol. Supernatants were collected 24 hours after seeding for the determination of Xcl1 levels.
Xcl1 levels were determined from supernatants collected from γδ T-cell cultures using Mouse Xcl1/Lymphotactin DuoSet ELISA Kit (R&D Systems) according to the manufacturer’s instructions.

B1: recombinant IL-38: recombinant murine IL-38 (AdipoGen) (protein)
chain: MCSLPMARYYIIKDAHQKALYTRNGQLLLGDPDSDNYSPEKVCILPNRGLDRSKVPIFLGMQGGSCCLACVKTREGPLLQLEDVNIEDLYKGGEQTTRFTFFQRSLGSAFRLEAAACPGWFLCGPAEPQQPVQLTKESEPSTHTEFYFEMSR
With B1 the “cDC1 migration towards γδ T-cell supernatants” value (cDC1) was “reduced”, the “IFN-γ secretion in γδ T cell / CD8+ T cell co-culture” value (splenic γδ T cells) was “limited the secretion of IFN-γ” and the “IL-17 production by splenic γδ T cells” value (splenic γδ T cells) was “effectively suppressed IL-17 production”. For the same molecule, the “Xcl1 levels on γδ TCR-dependent activation” value (γδ T cells) was “suppressed”.
